# Measurements taken from patent US20120082681A1 (Novartis, published 2012).
# T1: mouse IL12Rbeta1 (mouse, UniProt Q60837 20-565, limits assumed)
# T1 construct: also called murine IL12Rbeta1; rodent IL12Rbeta1 proteins
# T1 sequence (looked up): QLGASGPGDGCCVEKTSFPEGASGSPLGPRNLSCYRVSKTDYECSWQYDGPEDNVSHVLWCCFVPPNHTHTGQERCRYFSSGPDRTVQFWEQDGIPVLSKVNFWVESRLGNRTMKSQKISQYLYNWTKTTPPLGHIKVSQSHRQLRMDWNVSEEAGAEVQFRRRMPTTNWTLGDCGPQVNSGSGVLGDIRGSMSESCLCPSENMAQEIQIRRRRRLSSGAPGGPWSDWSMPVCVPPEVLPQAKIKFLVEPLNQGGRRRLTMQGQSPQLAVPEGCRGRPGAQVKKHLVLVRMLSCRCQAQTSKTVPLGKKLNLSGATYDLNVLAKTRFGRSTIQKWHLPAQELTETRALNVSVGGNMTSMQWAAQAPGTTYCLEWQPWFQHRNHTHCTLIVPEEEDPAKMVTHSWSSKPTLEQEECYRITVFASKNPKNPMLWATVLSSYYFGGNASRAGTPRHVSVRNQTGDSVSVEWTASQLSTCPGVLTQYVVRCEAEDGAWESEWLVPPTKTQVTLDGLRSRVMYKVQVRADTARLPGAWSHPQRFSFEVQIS
# Legend:
# [1] = target: T2, human IL12Rβ1 naturally expressed on cells (Kit225 cells, human T-cells, human blood cells) (human, UniProt P42701 24-662); experiment: flow cytometry, cell binding on human T-cells (human natural expression)
# T2 construct: also called IL12 receptor beta 1
# Protocol: (§1) Cell binding of selected antibodies is tested using various IL-12Rβ1 expressing cell lines, e.g. Kit 225 or HSC—F, or human and cyno T cell blasts, employing flow cytometry. After incubation with serial antibody dilutions, staining of the cells is quantified by flow cytometric analysis.
# [2] = target: T3, cynomolgous IL12Rβ1 naturally expressed on cells (HSC-F cells, cyno T-cells, cyno blood cells) (cynomolgus monkey, UniProt P42701 24-662 (human entry)); experiment: cell-based or functional assay
# [3] = target: T2, human IL12Rβ1 naturally expressed on …; experiment: cell-based or functional assay
# [4] = target: T4, human IL12Rbeta1 polypeptide (soluble receptor/antigen, construct not stated) (human, UniProt P42701 24-545); experiment: in vitro competitive binding assay (Bioveris/MSD); inhibition of receptor binding to coated IL12
# T4 construct: the whole entry is named; also called IL12Rβ1; the receptor
# Protocol: (§2) During the assay procedure, a fixed amount (predetermined to result in near maximum signal) of the receptor was incubated with increasing concentrations (1:100 to 100:1 molar ratio) of purified Fab/IgG in solution. Subsequently, the samples were transferred to a ligand coated and blocked MSD multi-titer plate. The free receptor binds to the ligand and was detected via an appropriate ruthenium complex-labeled antibody and quantified. The concentration of bound receptor as an inverse function of Fab/IgG concentration used for incubation was fitted using the respective model. The inflection point of the fitted curve represents the IC₅₀ value.
# [5] = target: T4, human IL12Rbeta1 polypeptide (soluble …); experiment: in vitro competitive binding assay (Bioveris/MSD); inhibition of receptor binding to coated IL23
# Protocol: as §2
# [6] = target: T3, cynomolgous IL12Rβ1 naturally expressed …; experiment: flow cytometry, cell binding on HSC-F (cyno natural expression)
# Protocol: as §1
# [7] = target: T3, cynomolgous IL12Rβ1 naturally expressed …; experiment: flow cytometry, cell binding on cyno T-cells (cyno natural expression)
# Protocol: as §1
# [8] = target: T2, human IL12Rβ1 naturally expressed on …; experiment: flow cytometry, cell binding on Kit225 (human natural expression)
# Protocol: as §1
# [9] = target: T5, cynomolgous monkey IL12Rβ1 (recombinant, construct not stated) (cynomolgus monkey, UniProt P42701 24-545 (human entry), limits assumed); experiment: SPR (Biacore), cyno IL12Rβ1
# T5 construct: The SPR method describes capture of an IL12Rβ1-Fc fusion, but the cyno construct is not described; the whole entry is named; also called cyno IL12Rβ1; cynomolgus IL12Rbeta1
# human IL12Rβ1-Fc-Fusion = target: T6, human IL12Rβ1-Fc-Fusion (human, UniProt P42701 24-545); experiment: SPR (Biacore), IL12Rβ1-Fc fusion captured on anti-human-Fc CM5 chip
# T6 construct: Captured on an anti-human-Fc chip for SPR; not shown: Fc part of the fusion
# Description: For determination of KD values, surface plasmon resonance technology was applied using the Biacore™ technology. Anti-human-Fc-capture CM5 chip (Biacore, Sweden) was used for capturing IL12Rβ1-Fc-Fusion followed by ligand (Fab) injection at different concentrations.
# mouse IL12Rbeta1 = target: T1, mouse IL12Rbeta1; experiment: not described
# [10] = target: T4, human IL12Rbeta1 polypeptide (soluble …); experiment: in vitro competitive binding assay (Bioveris/MSD); inhibition of receptor binding to coated IL12; IL12 competitive binding (first number of 8/18)
# Protocol: as §2
# [11] = target: T4, human IL12Rbeta1 polypeptide (soluble …); experiment: in vitro competitive binding assay (Bioveris/MSD); inhibition of receptor binding to coated IL23; IL23 competitive binding (second number of 8/18)
# Protocol: as §2
EC50 [1],"IL12/IL18 dependent IFNγ production In cyno blood cells (IC50, pM) [2]","IL12/IL18 dependent IFNγ production In human blood cells (IC50, pM) [3]",IC50 [4],IC50 [5],EC50 [6],EC50 [7],EC50 [8],Kd [9],Kd (human IL12Rβ1-Fc-Fusion),binding result (mouse IL12Rbeta1),IC50 [10],IC50 [11],Binder
,,,,,,,,,,no binding,,,"MOR11880 (antibody, V domains shown, Named by its variable regions only; H/DxMS used a representative antibody of the group; also called group mAb10, mAb11, mAb12, mAb16 (MOR11880)) VH: QVQLVQSGAEVKKPGASVKVSCKASGYTFTGYYMHWVRQAPGQGLEWMGMIGPQHGEAIYAQKFQGRVTMTRDTSISTAYMELSRLRSDDTAVYYCARESTDSDESPFDYWGQGTLVTVSS VL: SYELTQPLSVSVALGQTARITCSGDNIRSYYVSWYQQKPGQAPVLVIYDDSDRPSGIPERFSGSNSGNTATLTISRAQAGDEADYYCQSYGSHSNFVVFGGGTKLTVLG"
16 pM,1180 pM,42 pM,8 pM,20 pM,,28 pM,11 pM,600 pM,40 pM,,,,"mAb10 (MOR11880 with IgG1 LALA Fc variant) (antibody, V domains shown, Human IgG1 L234A L235A (LALA), expressed in HKB11 cells) VH: QVQLVQSGAEVKKPGASVKVSCKASGYTFTGYYMHWVRQAPGQGLEWMGMIGPQHGEAIYAQKFQGRVTMTRDTSISTAYMELSRLRSDDTAVYYCARESTDSDESPFDYWGQGTLVTVSS VL: SYELTQPLSVSVALGQTARITCSGDNIRSYYVSWYQQKPGQAPVLVIYDDSDRPSGIPERFSGSNSGNTATLTISRAQAGDEADYYCQSYGSHSNFVVFGGGTKLTVLG"
38 pM,216 pM,77 pM,8 pM,13 pM,13 pM,41 pM,5 pM,100 pM,20 pM,,,,"mAb4 (MOR11878 with IgG1 LALA Fc variant) (antibody, V domains shown, Human IgG1 L234A L235A (LALA), expressed in HKB11 cells) VH: QVQLVESGGGVVQPGRSLRLSCAASGFTFTSYGMSWVRQAPGKGLEWVAGISYDASDTEYADSVKGRFTISRDNSKNTLYLQMNSLRAEDTAVYYCARSPDYIIDYGFDYWGRGTLVTVSS VL: AIQMTQSPSSLSASVGDRVTITCRASQGISSDLAWYQQKPGKAPKLLIYDASSLQSGVPSRFSGSGSGTDFTLTISSLQPEDFATYYCQQYWWYPFTFGQGTKVEIKR"
,,,,,,,,,,no binding,,,"MOR11878 (antibody, V domains shown, Named by its variable regions only; H/DxMS used a representative antibody of the group; also called group mAb4, mAb5, mAb6, mAb14 (MOR11878)) VH: QVQLVESGGGVVQPGRSLRLSCAASGFTFTSYGMSWVRQAPGKGLEWVAGISYDASDTEYADSVKGRFTISRDNSKNTLYLQMNSLRAEDTAVYYCARSPDYIIDYGFDYWGRGTLVTVSS VL: AIQMTQSPSSLSASVGDRVTITCRASQGISSDLAWYQQKPGKAPKLLIYDASSLQSGVPSRFSGSGSGTDFTLTISSLQPEDFATYYCQQYWWYPFTFGQGTKVEIKR"

# Further lines, the binder ahead of its results:
Binder,EC50 [1],"IL12/IL18 dependent IFNγ production In cyno blood cells (IC50, pM) [2]","IL12/IL18 dependent IFNγ production In human blood cells (IC50, pM) [3]",IC50 [4],IC50 [5],EC50 [6],EC50 [7],EC50 [8],Kd [9],Kd (human IL12Rβ1-Fc-Fusion),binding result (mouse IL12Rbeta1),IC50 [10],IC50 [11]
"mAb7 (MOR11879 with IgG1 LALA Fc variant) (antibody, V domains shown, Human IgG1 L234A L235A (LALA), expressed in HKB11 cells) VH: QVQLVQSGAEVKKPGASVKVSCKASGYTFTGYYMHWVRQAPGQGLEWMGMIGPQHGEAIYAQKFQGRVTMTRDTSISTAYMELSRLRSEDTAVYYCARESTDSDESPFDYWGQGTLVTVSS VL: DIELTQPPSVSVSPGQTASITCSGDNIRSYYVSWYQQKPGQAPVLVIYDDSDRPSGIPERFSGSNSGNTATLTISGTQAEDEADYYCQSYGSHSNFVVFGGGTKLTVLG",15 pM,284 pM,24 pM,8 pM,20 pM,23 pM,36 pM,10 pM,600 pM,40 pM,,,
"mAb1 (MOR11873 with IgG1 LALA Fc variant) (antibody, V domains shown, Human IgG1 L234A L235A (LALA), expressed in HKB11 cells) VH: QVQLVESGGGVVQPGRSLRLSCAASGFTFTSYGMSWVRQAPGKGLEWVAGISYSGSDTEYADSVKGRFTISRDNSKNTLYLQMNSLRAEDTAVYYCARSPDYIIDYGFDYWGRGTLVTVSS VL: AIQMTQSPSSLSASVGDRVTITCRASQGISSDLAWYQQKPGKAPKLLIYDASSLQSGVPSRFSGSGSGTDFTLTISSLQPEDFATYYCQQYWIYPFTFGQGTKVEIKR",33 pM,239 pM,28 pM,,,23 pM,55 pM,6 pM,100 pM,40 pM,,8 pM,18 pM
"MOR11873 (antibody, V domains shown, Named by its variable regions only; H/DxMS used a representative antibody of the group; also called group mAb1, mAb2, mAb3, mAb13 (MOR11873)) VH: QVQLVESGGGVVQPGRSLRLSCAASGFTFTSYGMSWVRQAPGKGLEWVAGISYSGSDTEYADSVKGRFTISRDNSKNTLYLQMNSLRAEDTAVYYCARSPDYIIDYGFDYWGRGTLVTVSS VL: AIQMTQSPSSLSASVGDRVTITCRASQGISSDLAWYQQKPGKAPKLLIYDASSLQSGVPSRFSGSGSGTDFTLTISSLQPEDFATYYCQQYWIYPFTFGQGTKVEIKR",,,,,,,,,,,no binding,,
